We go through six compounds from article PMC10340464, “Identification of a Novel SSTR3 Full Agonist for the Treatment of Nonfunctioning Pituitary Adenomas” (Cancers, 2023).

For series [1] the following is noted: species, matrix, method and reference not given; cited from earlier work.
In series [2] the target is human somatostatin receptor 3 (human) (UniProt P32745).
The target of series [3] is human somatostatin receptor 5 (human) (UniProt P35346).
Series [4] concerns the target human somatostatin receptor 1 (human) (UniProt P30872). Description: radioligand binding; competition with 3-[125I]iodotyrosyl11 somatostatin-14 on membrane extracts of CHO-K1 cells expressing the human receptor; agonist 10^-11 to 3 x 10^-7 M, n = 2; 60 min at 25 °C, filtered and counted.
The target of series [5] is human somatostatin receptor 2 (human) (UniProt P30874). Described as above.
For series [6], the target named is human somatostatin receptor 3 (human) (UniProt P32745). The series is described as above.
The target of series [7] is human somatostatin receptor 5 (human) (UniProt P35346). The description is as above.

Numbered stars: 1 amine (or outer) side, 2 acyl side, 3 side chain; on linkers, the order of the positions; unused ones are H or OH. Square brackets hold non-standard residues; d marks the D form. Side chains are listed from the residue outwards. Peptide text beside a SMILES is read from it. * marks the point of attachment. Ethylenediamine = C(CN[*:2])N[*:1]; Hyp = O=C(O)[C@@H]1C[C@@H](O)CN1; Phg = N[C@H](C(=O)O)c1ccccc1; CO = O=C([*:1])[*:2]; Bn = c1ccc(C*)cc1

human somatostatin receptor 3 (human), sequence (P32745 whole entry): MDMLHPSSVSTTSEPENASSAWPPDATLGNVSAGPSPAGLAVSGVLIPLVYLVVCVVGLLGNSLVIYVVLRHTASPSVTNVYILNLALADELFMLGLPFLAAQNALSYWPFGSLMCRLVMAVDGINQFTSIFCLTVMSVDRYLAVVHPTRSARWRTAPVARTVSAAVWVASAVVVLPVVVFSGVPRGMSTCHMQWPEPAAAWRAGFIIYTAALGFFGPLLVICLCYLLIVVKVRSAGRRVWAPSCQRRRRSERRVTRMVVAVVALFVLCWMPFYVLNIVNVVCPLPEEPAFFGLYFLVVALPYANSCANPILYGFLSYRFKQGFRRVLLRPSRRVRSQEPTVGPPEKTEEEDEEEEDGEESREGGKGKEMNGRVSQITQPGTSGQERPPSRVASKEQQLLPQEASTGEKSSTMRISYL
human somatostatin receptor 5 (human), sequence (P35346 whole entry): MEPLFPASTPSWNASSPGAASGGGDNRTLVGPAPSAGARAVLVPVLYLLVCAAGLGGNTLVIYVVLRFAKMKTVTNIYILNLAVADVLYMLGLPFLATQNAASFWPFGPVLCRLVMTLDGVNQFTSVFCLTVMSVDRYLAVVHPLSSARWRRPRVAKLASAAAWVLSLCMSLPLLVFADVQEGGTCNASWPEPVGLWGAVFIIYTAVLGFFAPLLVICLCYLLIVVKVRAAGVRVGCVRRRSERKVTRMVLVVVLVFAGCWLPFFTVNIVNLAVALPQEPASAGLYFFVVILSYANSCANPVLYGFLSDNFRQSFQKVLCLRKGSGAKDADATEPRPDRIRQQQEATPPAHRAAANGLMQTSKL
human somatostatin receptor 1 (human), sequence (P30872 whole entry): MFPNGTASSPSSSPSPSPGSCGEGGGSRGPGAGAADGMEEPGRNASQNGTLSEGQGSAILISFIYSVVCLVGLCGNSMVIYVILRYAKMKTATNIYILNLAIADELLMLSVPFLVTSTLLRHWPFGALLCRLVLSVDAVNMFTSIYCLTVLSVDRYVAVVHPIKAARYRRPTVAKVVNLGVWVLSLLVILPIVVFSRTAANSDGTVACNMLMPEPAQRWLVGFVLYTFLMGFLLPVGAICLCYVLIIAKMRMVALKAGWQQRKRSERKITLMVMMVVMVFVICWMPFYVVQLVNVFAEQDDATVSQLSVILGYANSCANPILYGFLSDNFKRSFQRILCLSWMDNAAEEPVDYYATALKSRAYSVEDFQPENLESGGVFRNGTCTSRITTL
human somatostatin receptor 2 (human), sequence (P30874 whole entry): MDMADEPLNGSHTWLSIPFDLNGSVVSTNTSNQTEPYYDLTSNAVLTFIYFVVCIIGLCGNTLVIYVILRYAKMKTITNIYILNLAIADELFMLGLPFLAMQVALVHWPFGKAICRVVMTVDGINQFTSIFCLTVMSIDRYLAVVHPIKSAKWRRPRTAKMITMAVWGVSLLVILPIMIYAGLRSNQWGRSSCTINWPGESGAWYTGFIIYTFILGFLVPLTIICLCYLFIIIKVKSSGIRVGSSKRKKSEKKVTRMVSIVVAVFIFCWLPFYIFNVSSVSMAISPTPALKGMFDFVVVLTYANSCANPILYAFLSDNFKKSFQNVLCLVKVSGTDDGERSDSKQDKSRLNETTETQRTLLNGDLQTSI

Regarding `CSCC[C@H](NC(=O)[C@H](C)NC(=O)[C@@H]1CCCN1C(=O)[C@H](CC(N)=O)NC(=O)[C@H](CO)NC(=O)[C@H](CC(N)=O)NC(=O)[C@H](C)NC(=O)[C@@H](N)CO)C(=O)N[C@@H](C)C(=O)N1CCC[C@H]1C(=O)N[C@@H](CCCNC(=N)N)C(=O)N[C@@H](CCC(=O)O)C(=O)N[C@@H](CCCNC(=N)N)C(=O)N[C@@H](CCCCN)C(=O)N[C@@H](C)C(=O)NCC(=O)N[C@H]1CSSC[C@@H](C(=O)O)NC(=O)[C@H](CO)NC(=O)[C@H]([C@@H](C)O)NC(=O)[C@H](Cc2ccccc2)NC(=O)[C@H]([C@@H](C)O)NC(=O)[C@H](CCCCN)NC(=O)[C@H](Cc2c[nH]c3ccccc23)NC(=O)[C@H](Cc2ccccc2)NC(=O)[C@H](Cc2ccccc2)NC(=O)[C@H](CC(N)=O)NC(=O)[C@H](CCCCN)NC1=O` [SST-28], the Half-time life in series [1] was 2.0 min.

In the case of `NCCCC[C@@H]1NC(=O)[C@@H](Cc2c[nH]c3ccccc23)NC(=O)[C@H](c2ccccc2)NC(=O)[C@@H]2C[C@@H](OC(=O)NCCN)CN2C(=O)[C@H](Cc2ccccc2)NC(=O)[C@H](Cc2ccc(OCc3ccccc3)cc2)NC1=O` [Pasireotide] (cyclo([Hyp]([CO-Ethylenediamine])[Phg][dW]KY(Bn)F)), the Half-time life in series [1] is 1080 min.

As a reminder, the IC50 is the concentration needed to halve the response being measured. Low values mean inhibition by little substance, high ones a need for much substance. On to Pasireotide (peptide), for which the EC50 of GIRK2 channel activation via SSTR3 in transfected HEK293 cells (fluorescence membrane potential assay) in series [2] turned out to be 63 nM. Further, in series [2], the receptor internalization in U2OS cells transfected with SSTR3-tGFP, 10^-9 to 10^-5 M, 3 h; the cell gives 10^-5 M (10^-6 M) (% of activity) stood at 46.3. Further, the EC50 of GIRK2 channel activation via SSTR5 in transfected HEK293 cells (fluorescence membrane potential assay) in series [3] was 16.5 nM. The receptor internalization in U2OS cells transfected with SSTR5-tGFP, 10^-9 to 10^-5 M, 7 h; the cell gives 10^-5 M (10^-6 M) (% of activity) in series [3] stood at 43.9. For the same compound, the IC50 in series [4] was 43.9 nM; in series [5], 5.5 nM; in series [6], 2.73 nM; in series [7], 0.37 nM.

Take Octreotide (peptide): the receptor internalization in U2OS cells transfected with SSTR5-tGFP, 10^-9 to 10^-5 M, 7 h; the cell gives 10^-5 M (10^-6 M) (% of activity) in series [3] stood at 39.3.

`C[C@@H](O)[C@@H]1NC(=O)[C@H](CCCCN)NC(=O)[C@@H](Cc2c[nH]c3ccccc23)NC(=O)[C@H](Cc2ccccc2)NC(=O)[C@@H](NC(=O)[C@H](N)Cc2ccccc2)CSSC[C@@H](C(=O)N[C@H](CO)[C@@H](C)O)NC1=O` [Octreotide]: the Half-time life in series [1] is 120 min.

For `C[C@H](N)C(=O)NCC(=O)N[C@H]1CSSC[C@@H](C(=O)O)NC(=O)[C@H](CO)NC(=O)[C@H]([C@@H](C)O)NC(=O)[C@H](Cc2ccccc2)NC(=O)[C@H]([C@@H](C)O)NC(=O)[C@H](CCCCN)NC(=O)[C@H](Cc2c[nH]c3ccccc23)NC(=O)[C@H](Cc2ccccc2)NC(=O)[C@H](Cc2ccccc2)NC(=O)[C@H](CC(N)=O)NC(=O)[C@H](CCCCN)NC1=O` [SST-14], the Half-time life in series [1] is given as 2.5 min.
